Source: PMC5778702

molecular target: pCMV-HA-H (HA-H), hemagglutinin (H) protein of Peste des petits ruminants virus with HA tag (Peste des petits ruminants virus); experiment: SPR; […]; Biacore 3000, 25 °C, HBS-EP (10 mM HEPES pH 7.4, 150 mM NaCl, 3 mM EDTA, 0.005% P20); […]

In order of falling Kd:
1. pCMV-HA-HRA (HA-HRA), heptad repeat region A of the PPRV F protein with HA tag (domain or fragment)  108000 nM
2. pCMV-HA-HRB (HA-HRB), heptad repeat region B of the PPRV F protein with HA tag (domain or fragment)  260 nM
3. pCMV-HA-F (HA-F), fusion (F) protein of Peste des petits ruminants virus with HA tag (natural protein)  19.1 nM

In order of rising koff:
1. pCMV-HA-F (HA-F), fusion (F) protein of Peste des petits ruminants virus with HA tag (natural protein)  0.000937 s⁻¹
2. pCMV-HA-HRB (HA-HRB), heptad repeat region B of the PPRV F protein with HA tag (domain or fragment)  0.00299 s⁻¹
3. pCMV-HA-HRA (HA-HRA), heptad repeat region A of the PPRV F protein with HA tag (domain or fragment)  0.00414 s⁻¹

In order of rising kon:
1. pCMV-HA-HRA (HA-HRA), heptad repeat region A of the PPRV F protein with HA tag (domain or fragment)  38.2 M⁻¹ s⁻¹
2. pCMV-HA-HRB (HA-HRB), heptad repeat region B of the PPRV F protein with HA tag (domain or fragment)  11500 M⁻¹ s⁻¹
3. pCMV-HA-F (HA-F), fusion (F) protein of Peste des petits ruminants virus with HA tag (natural protein)  49100 M⁻¹ s⁻¹
